The text below walks through data of article PMC4949953.

In the assay the target is computationally redesigned, water-soluble variant of the human μ-opioid receptor (MOR) (human) (UniProt P35372). Description: MoS2 field effect transistor biosensor.

In general, Kd refers to the equilibrium constant for the complex coming apart. Take “[D-Ala^2, N-MePhe^4, Gly-ol]-enkephalin (peptide)”: the Kd was 87 nM.
